Source: patent publication US20200109194A1 (BLUEFIN BIOMEDICINE, published 2020)

Columns and labels:
[1] = target: T1, endogenous human TMEFF1 on cancer cell lines (H69, HCC1187, PA-1, H526, H1048) (human, UniProt Q8IYR6 40-380); assay: cell-based or functional assay
T1 sequence: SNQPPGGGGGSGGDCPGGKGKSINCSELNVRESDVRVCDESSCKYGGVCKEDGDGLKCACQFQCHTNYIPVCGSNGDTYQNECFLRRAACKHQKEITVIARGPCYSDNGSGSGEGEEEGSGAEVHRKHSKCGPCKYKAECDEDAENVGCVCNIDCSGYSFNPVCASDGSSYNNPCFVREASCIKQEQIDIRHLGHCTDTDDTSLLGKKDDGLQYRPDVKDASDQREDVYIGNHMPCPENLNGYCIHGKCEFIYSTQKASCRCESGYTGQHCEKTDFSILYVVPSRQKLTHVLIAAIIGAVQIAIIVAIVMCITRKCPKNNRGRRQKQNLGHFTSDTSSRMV

[2] = target: T2, Macaca fascicularis TMEFF1 extracellular domain recombinant protein (plasmid BBP480, S40-V330, C-terminal … (Macaca fascicularis)); assay: BLI (Octet Red), antibody on Protein A biosensor, recombinant cyTMEFF1 ECD as analyte
T2 construct: range 40-330; also called cyTMEFF1 ECD; monkey TMEFF1 ectodomain
Method: (§1) The affinity of antibodies to various recombinant TMEFF1 protein was determined on an Octet Red™ instrument. After loading reagents into a 96-well plate, the Octet Red™ with Protein A-conjugated biosensors was programmed as follows: 30 seconds for baseline #1; 120 seconds to immobilize the antibody; 30 seconds for baseline #2; 300 seconds for association of antibody to recombinant TMEFF1; and 300-600 seconds for dissociation of recombinant TMEFF1 from the antibody.
Affinity of 7 antibodies was calculated using cyTMEFF1 ECD recombinant protein by Octet™.

[3] = target: T3, human TMEFF1 extracellular domain recombinant protein (plasmid BBP377, S40-V330, C-terminal 8xHis) (human, UniProt Q8IYR6 40-330); assay: BLI (Octet Red), antibody on Protein A biosensor, recombinant hTMEFF1 ECD as analyte
T3 construct: Secreted from CHO cells with a non-native signal peptide (not part of the mature protein); also called hTMEFF1 ECD; hTMEFF1-ECD
T3 sequence: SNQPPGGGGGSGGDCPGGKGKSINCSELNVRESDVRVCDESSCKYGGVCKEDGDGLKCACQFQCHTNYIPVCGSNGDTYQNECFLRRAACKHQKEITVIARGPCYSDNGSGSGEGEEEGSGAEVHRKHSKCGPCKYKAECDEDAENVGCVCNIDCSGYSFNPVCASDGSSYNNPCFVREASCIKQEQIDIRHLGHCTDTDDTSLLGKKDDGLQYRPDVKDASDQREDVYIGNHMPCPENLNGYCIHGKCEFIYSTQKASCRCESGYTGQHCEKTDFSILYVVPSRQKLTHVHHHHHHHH
Method: as §1
Affinity of thirteen antibodies was calculated using hTMEFF1 ECD recombinant protein by Octet™.

B1: 30C10-PBD (antibody, human IgG1, V domains shown)
VH: QVQLVESGGGVVQPGRSLRLSCAASGFTFSSYGMHWVRQAPGKGLEWVAVIWYDGSDKYYADSVKGRFTISRDNSKKTLYLQMNSLRAEDTAVYFCARETIFRGLTITFFDHWGQGTLVTVSS
VL: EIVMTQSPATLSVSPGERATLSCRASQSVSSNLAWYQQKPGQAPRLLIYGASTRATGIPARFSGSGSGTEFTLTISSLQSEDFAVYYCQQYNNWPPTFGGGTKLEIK
modifications: MA-PEG8-VA-PAB-SG3199 (PBD) on TCEP-reduced hinge region thiols, sites not stated; DAR 1.7
[1]
  IC50 of growth of H526 cells (CellTiter Glo, 5 days): 4.27 ng/mL
  IC50 of growth of H1048 cells (CellTiter Glo, 5 days): 0.53 ng/mL

B2: 36H6 (antibody, human IgG1, V domains shown)
VH: QVQLVESGGGVVQPGRSLRLSCAASGFTFSDYGMHWVRQAPGKGLEWVAVIWYEGGNKYYTDSVKGRFTISRDNSKNTLYLQMNSLRAEDTAVYYCARILLWFGESYGMDVWGQGTTVTVSS
VL: DIQMTQSPSSLSASVGDRVTITCRASQGISNYLAWYQQKPGKVPKLLIYAASTLQSGVPSRFSGSGSGTDFTLTISSLQPEDVATYYCQKYNNAPWTFGQGTKVEIK
[2]
  Kd: 96 nM
[3]
  Kd: 51 nM

B3: M1F1 (antibody, human IgG1, V domains shown)
VH: QVQLQESGPGLVKPSETLSLTCAVSGYSISSGYFWGWIRQPPGKKLEWIGSIYHSGSTYYNPSLKSRVTMSVDTSKNQFSLKLSSVTAADTAVYYCAREGDCSGGICYWYFDLWGRGTLVTVSS
VL: EIVMTQSPATLSVSPGERATLSCRASQSVSSNLAWYQQKPGQAPRLLIYGASTRATGIPARFSGSGSGTEVTLTISSLQSEDFAVYYCQQYNKWPLTFGGGTKVEIK
[2]
  Kd: 27 nM
[3]
  Kd: 19 nM
